Source: patent US20100260763A1 (DOMANTIS, published 2010)

Columns and labels:
[1] = target: T1, human TNFR1, soluble recombinant protein (human, UniProt P19438 22-211, limits assumed, biotinylated in the BIAcore assays (coupling via primary amines)); assay: phage ELISA, plate coated with 1 nM TNFR1, anti-M13-HRP; trypsin 0 µg/ml; phage input 2.26E+10
T1 construct: also called biotinylated TNFR1; human recombinant E. coli-expressed human TNFR1
T1 sequence (looked up): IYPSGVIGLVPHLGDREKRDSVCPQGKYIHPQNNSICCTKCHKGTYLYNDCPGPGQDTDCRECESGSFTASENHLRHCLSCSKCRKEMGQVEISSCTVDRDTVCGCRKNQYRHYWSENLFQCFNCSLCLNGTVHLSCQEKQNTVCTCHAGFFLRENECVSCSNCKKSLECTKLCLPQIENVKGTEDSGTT

[2] = target: T1, human TNFR1, soluble recombinant protein; assay: phage ELISA, plate coated with 1 nM TNFR1, anti-M13-HRP; trypsin 0 µg/ml; phage input 2.82E+09
[3] = target: T1, human TNFR1, soluble recombinant protein; assay: phage ELISA, plate coated with 1 nM TNFR1, anti-M13-HRP; trypsin 0 µg/ml; phage input 5.64E+09
[4] = target: T1, human TNFR1, soluble recombinant protein; assay: phage ELISA, plate coated with 1 nM TNFR1, anti-M13-HRP; trypsin 1 mg/ml 1 h room temp; phage input 1.13E+10
[5] = target: T1, human TNFR1, soluble recombinant protein; assay: phage ELISA, plate coated with 1 nM TNFR1, anti-M13-HRP; trypsin 1 mg/ml 1 h room temp; phage input 2.82E+09
[6] = target: T1, human TNFR1, soluble recombinant protein; assay: phage ELISA, plate coated with 1 nM TNFR1, anti-M13-HRP; trypsin 1 mg/ml 1 h room temp; phage input 4.51E+10
[7] = target: T1, human TNFR1, soluble recombinant protein; assay: phage ELISA, plate coated with 1 nM TNFR1, anti-M13-HRP; trypsin 1 mg/ml 1 h room temp; phage input 7.05E+08
[8] = target: T1, human TNFR1, soluble recombinant protein; assay: phage ELISA, plate coated with 1 nM TNFR1, anti-M13-HRP; trypsin 10 µg/ml 1 h room temp; phage input 1.41E+09
[9] = target: T1, human TNFR1, soluble recombinant protein; assay: phage ELISA, plate coated with 1 nM TNFR1, anti-M13-HRP; trypsin 10 µg/ml 1 h room temp; phage input 5.64E+09
[10] = target: T1, human TNFR1, soluble recombinant protein; assay: phage ELISA, plate coated with 1 nM TNFR1, anti-M13-HRP; trypsin 10 µg/ml 1 h room temp; phage input 7.05E+08
[11] = target: T1, human TNFR1, soluble recombinant protein; assay: phage ELISA, plate coated with 1 nM TNFR1, anti-M13-HRP; trypsin 100 µg/ml 1 h room temp; phage input 2.26E+10
[12] = target: T1, human TNFR1, soluble recombinant protein; assay: phage ELISA, plate coated with 1 nM TNFR1, anti-M13-HRP; trypsin 100 µg/ml 1 h room temp; phage input 5.64E+09

Substance: DOM1h-131 displayed on phage
- phage ELISA read-out [1]: 0.944
- phage ELISA read-out [2]: 0.946
- phage ELISA read-out [3]: 0.962
- phage ELISA read-out [4]: 0.183
- phage ELISA read-out [5]: 0.114
- phage ELISA read-out [6]: 0.284
- phage ELISA read-out [7]: 0.084
- phage ELISA read-out [8]: 0.409
- phage ELISA read-out [9]: 0.695
- phage ELISA read-out [10]: 0.286
- phage ELISA read-out [11]: 0.377
- phage ELISA read-out [12]: 0.196
